The supplement of paper PMC9112550, “Optimization of the antimicrobial peptide Bac7 by deep mutational scanning” (BMC Biology, 2022)

What follows are sequences tested on Escherichia coli TOP10 (assay: shrunken log2 fold change of peptide-encoding DNA abundance (4.5 h post-induction vs induction); higher = less antimicrobial activity (less host growth inhibition)). Conditions: time post-induction: 4.5 h; library: site-saturation at positions 5, 18, 19, 20.
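Note: peptides expressed intracellularly from a pBAD plasmid library in pooled LB shake-flask culture, induced with 0.3% L-arabinose, DNA abundance read by NGS, three biological replicates, DESeq2 with apeglm shrinkage.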

Sequence | shrunken log2 fold change
RRIRFRPPRLPRPRPRPHERPRP | 0.0652
RRIRFRPPRLPRPRPRPHFAPRP | 0.0808
RRIRFRPPRLPRPRPRPHGDPRP | 0.0644
RRIRFRPPRLPRPRPRPHIDPRP | -0.335
RRIRFRPPRLPRPRPRPHIGPRP | -0.482
RRIRFRPPRLPRPRPRPHKFPRP | -0.5
RRIRFRPPRLPRPRPRPHKYPRP | -0.411
RRIRFRPPRLPRPRPRPHMFPRP | -0.21
RRIRFRPPRLPRPRPRPHNHPRP | -0.835
RRIRFRPPRLPRPRPRPHNQPRP | -0.75
RRIRFRPPRLPRPRPRPHQGPRP | -0.0419
RRIRFRPPRLPRPRPRPHRGPRP | 0.0928
RRIRFRPPRLPRPRPRPHVKPRP | -0.0318
RRIRFRPPRLPRPRPRPHWEPRP | -0.0104
RRIRFRPPRLPRPRPRPHWHPRP | -0.444
RRIRFRPPRLPRPRPRPICAPRP | 0.0631
RRIRFRPPRLPRPRPRPIDKPRP | -0.499
RRIRFRPPRLPRPRPRPIDRPRP | -0.0144
RRIRFRPPRLPRPRPRPIFYPRP | -0.0962
RRIRFRPPRLPRPRPRPIGEPRP | 0.0336
RRIRFRPPRLPRPRPRPIHTPRP | 0.0523
RRIRFRPPRLPRPRPRPIIGPRP | -0.024
RRIRFRPPRLPRPRPRPIIIPRP | -0.579
RRIRFRPPRLPRPRPRPIPFPRP | 2.3
RRIRFRPPRLPRPRPRPIQEPRP | -0.541

Sequence | shrunken log2 fold change
RRIRFRPPRLPRPRPRPIQIPRP | -0.234
RRIRFRPPRLPRPRPRPIQLPRP | -0.336
RRIRFRPPRLPRPRPRPIRDPRP | 0.0144
RRIRFRPPRLPRPRPRPIRQPRP | -0.297
RRIRFRPPRLPRPRPRPISEPRP | -0.0674
RRIRFRPPRLPRPRPRPISQPRP | -0.588
RRIRFRPPRLPRPRPRPIWVPRP | -0.107
RRIRFRPPRLPRPRPRPIYFPRP | -0.09
RRIRFRPPRLPRPRPRPIYRPRP | -0.122
RRIRFRPPRLPRPRPRPKAGPRP | 0.307
RRIRFRPPRLPRPRPRPKCQPRP | 0.274
RRIRFRPPRLPRPRPRPKDRPRP | 0.148
RRIRFRPPRLPRPRPRPKEQPRP | -0.00277
RRIRFRPPRLPRPRPRPKFDPRP | -0.0676
RRIRFRPPRLPRPRPRPKFEPRP | -0.081
RRIRFRPPRLPRPRPRPKGEPRP | 0.35
RRIRFRPPRLPRPRPRPKHFPRP | -0.0499
RRIRFRPPRLPRPRPRPKIMPRP | -0.624
RRIRFRPPRLPRPRPRPKKKPRP | -0.00928
RRIRFRPPRLPRPRPRPKLHPRP | -0.0553
RRIRFRPPRLPRPRPRPKLYPRP | -0.481
RRIRFRPPRLPRPRPRPKMCPRP | -0.487
RRIRFRPPRLPRPRPRPKPEPRP | 0.37
RRIRFRPPRLPRPRPRPKPPPRP | 1.35
RRIRFRPPRLPRPRPRPKQRPRP | 0.384

Sequence | shrunken log2 fold change
RRIRFRPPRLPRPRPRPKRIPRP | -0.442
RRIRFRPPRLPRPRPRPKSKPRP | -0.0737
RRIRFRPPRLPRPRPRPKSSPRP | -0.103
RRIRFRPPRLPRPRPRPKVIPRP | -0.212
RRIRFRPPRLPRPRPRPKVMPRP | -0.178
RRIRFRPPRLPRPRPRPKVRPRP | -0.022
RRIRFRPPRLPRPRPRPKVVPRP | 0.291
RRIRFRPPRLPRPRPRPKYFPRP | -0.758
RRIRFRPPRLPRPRPRPKYPPRP | -0.31
RRIRFRPPRLPRPRPRPLAAPRP | 0.315
RRIRFRPPRLPRPRPRPLACPRP | -0.162
RRIRFRPPRLPRPRPRPLCAPRP | -0.0266
RRIRFRPPRLPRPRPRPLDCPRP | -0.112
RRIRFRPPRLPRPRPRPLDQPRP | 0.0734
RRIRFRPPRLPRPRPRPLDVPRP | -0.153
RRIRFRPPRLPRPRPRPLEHPRP | 0.0403
RRIRFRPPRLPRPRPRPLENPRP | -0.0435
RRIRFRPPRLPRPRPRPLFGPRP | 0.0395
RRIRFRPPRLPRPRPRPLHKPRP | -0.179
RRIRFRPPRLPRPRPRPLHWPRP | 0.0916
RRIRFRPPRLPRPRPRPLIDPRP | -0.227
RRIRFRPPRLPRPRPRPLITPRP | -0.503
RRIRFRPPRLPRPRPRPLKGPRP | -0.128
RRIRFRPPRLPRPRPRPLLWPRP | 0.305
RRIRFRPPRLPRPRPRPLMLPRP | -0.282

Sequence | shrunken log2 fold change
RRIRFRPPRLPRPRPRPLMNPRP | -0.607
RRIRFRPPRLPRPRPRPLMRPRP | 0.278
RRIRFRPPRLPRPRPRPLNHPRP | -0.608
RRIRFRPPRLPRPRPRPLNKPRP | -0.522
RRIRFRPPRLPRPRPRPLNMPRP | -0.777
RRIRFRPPRLPRPRPRPLNNPRP | -0.767
RRIRFRPPRLPRPRPRPLNYPRP | -0.755
RRIRFRPPRLPRPRPRPLPHPRP | -0.0994
RRIRFRPPRLPRPRPRPLPIPRP | 0.165
RRIRFRPPRLPRPRPRPLRKPRP | 0.465
RRIRFRPPRLPRPRPRPLSAPRP | -0.039
RRIRFRPPRLPRPRPRPLSNPRP | -0.504
RRIRFRPPRLPRPRPRPLTFPRP | -0.391
RRIRFRPPRLPRPRPRPLTVPRP | -0.73
RRIRFRPPRLPRPRPRPLVQPRP | -0.052
RRIRFRPPRLPRPRPRPLVTPRP | -0.318
RRIRFRPPRLPRPRPRPLWVPRP | 0.0127
RRIRFRPPRLPRPRPRPMCAPRP | 0.253
RRIRFRPPRLPRPRPRPMCCPRP | -0.429
RRIRFRPPRLPRPRPRPMCEPRP | -0.236
RRIRFRPPRLPRPRPRPMCKPRP | -0.169
RRIRFRPPRLPRPRPRPMDMPRP | 0.0169
RRIRFRPPRLPRPRPRPMGQPRP | -0.0471
RRIRFRPPRLPRPRPRPMGVPRP | -0.457
RRIRFRPPRLPRPRPRPMHYPRP | -0.0476

Sequence | shrunken log2 fold change
RRIRFRPPRLPRPRPRPMKEPRP | -0.187
RRIRFRPPRLPRPRPRPMKNPRP | -0.0862
RRIRFRPPRLPRPRPRPMKYPRP | -0.664
RRIRFRPPRLPRPRPRPMLYPRP | -0.567
RRIRFRPPRLPRPRPRPMMTPRP | 0.022
RRIRFRPPRLPRPRPRPMPRPRP | 0.513
RRIRFRPPRLPRPRPRPMQYPRP | -0.683
RRIRFRPPRLPRPRPRPMSFPRP | -0.193
RRIRFRPPRLPRPRPRPMSKPRP | -0.0951
RRIRFRPPRLPRPRPRPMSNPRP | 0.0556
RRIRFRPPRLPRPRPRPMVFPRP | -0.0469
RRIRFRPPRLPRPRPRPMVQPRP | -0.106
RRIRFRPPRLPRPRPRPMWRPRP | -0.0033
RRIRFRPPRLPRPRPRPMYEPRP | -0.309
RRIRFRPPRLPRPRPRPMYKPRP | -0.662
RRIRFRPPRLPRPRPRPMYPPRP | -0.249
RRIRFRPPRLPRPRPRPMYTPRP | -0.00812
RRIRFRPPRLPRPRPRPNCEPRP | 0.194
RRIRFRPPRLPRPRPRPNCKPRP | -0.0929
RRIRFRPPRLPRPRPRPNCPPRP | 0.0451
RRIRFRPPRLPRPRPRPNDGPRP | -0.222
RRIRFRPPRLPRPRPRPNFHPRP | -0.218
RRIRFRPPRLPRPRPRPNFIPRP | -0.308
RRIRFRPPRLPRPRPRPNGAPRP | -0.105
RRIRFRPPRLPRPRPRPNGGPRP | 0.000932

Sequence | shrunken log2 fold change
RRIRFRPPRLPRPRPRPNHEPRP | -0.56
RRIRFRPPRLPRPRPRPNHRPRP | -0.306
RRIRFRPPRLPRPRPRPNHWPRP | -0.131
RRIRFRPPRLPRPRPRPNIEPRP | -0.288
RRIRFRPPRLPRPRPRPNKGPRP | -0.606
RRIRFRPPRLPRPRPRPNLTPRP | -0.347
RRIRFRPPRLPRPRPRPNMCPRP | -0.54
RRIRFRPPRLPRPRPRPNNDPRP | -0.673
RRIRFRPPRLPRPRPRPNQHPRP | -0.275
RRIRFRPPRLPRPRPRPNRPPRP | -0.0705
RRIRFRPPRLPRPRPRPNSEPRP | -0.406
RRIRFRPPRLPRPRPRPNSIPRP | -0.216
RRIRFRPPRLPRPRPRPNSVPRP | -0.0912
RRIRFRPPRLPRPRPRPNTFPRP | -0.559
RRIRFRPPRLPRPRPRPNVLPRP | -0.323
RRIRFRPPRLPRPRPRPNVMPRP | -0.166
RRIRFRPPRLPRPRPRPNWAPRP | 0.00252
RRIRFRPPRLPRPRPRPPCVPRP | 0.0878
RRIRFRPPRLPRPRPRPPCWPRP | 0.478
RRIRFRPPRLPRPRPRPPEYPRP | -0.0154
RRIRFRPPRLPRPRPRPPFIPRP | -0.236
RRIRFRPPRLPRPRPRPPFMPRP | 0.0431
RRIRFRPPRLPRPRPRPPIGPRP | -0.229
RRIRFRPPRLPRPRPRPPIRPRP | -0.0123
RRIRFRPPRLPRPRPRPPKEPRP | 0.0652
